Consider five molecules from patent US20220125885A1, “GLUCAGON ANALOG AGONISTS AND METHODS OF USING THE SAME” (Eli Lilly and Company, priority 2019, published 2022).

Where no end group is shown, it is not given here. [ ]: non-standard residue; d: D form. 4Pal = N[C@@H](Cc1ccncc1)C(=O)O; Dab = NCC[C@H](N)C(=O)O; Aib = CC(C)(N)C(=O)O Bounds are passed on as bounds.

The nature of one data set: in vivo. To be noted: male, Yucatan miniature swine, pig, sc, 10 ug/kg. The procedure: 1. […] The compounds and an analog as an internal standard are extracted from […] by antibody or protein precipitations. The intact mass of the compounds are detected by a Q Exactive® Orbitrap® Mass Spectrometer (Thermo Fisher Scientific; Waltham, Mass.). 2. […] Blood is collected at pre-dose, 2, 5, 10, 15, 20, 25, 30, 45, 60, 75, 90, 120 and 150 minutes post-dose, and plasma is obtained for pharmacokinetic characterization. […] Blood is collected at pre-dose, 2, 5, 10, 15, 20, 25, 30, 45, 60, 75, 90, 120 and 150 minutes postdose, and plasma is obtained for pharmacokinetic characterization.

For data set [1], the target named is T1, human GLP-1 receptor (hGLP-1R) (Homo sapiens, UniProt P43220).
T1 construct: expressed in transfected cells; host or cells: HEK-293 clonal cell line
T1 sequence (P43220 24-463): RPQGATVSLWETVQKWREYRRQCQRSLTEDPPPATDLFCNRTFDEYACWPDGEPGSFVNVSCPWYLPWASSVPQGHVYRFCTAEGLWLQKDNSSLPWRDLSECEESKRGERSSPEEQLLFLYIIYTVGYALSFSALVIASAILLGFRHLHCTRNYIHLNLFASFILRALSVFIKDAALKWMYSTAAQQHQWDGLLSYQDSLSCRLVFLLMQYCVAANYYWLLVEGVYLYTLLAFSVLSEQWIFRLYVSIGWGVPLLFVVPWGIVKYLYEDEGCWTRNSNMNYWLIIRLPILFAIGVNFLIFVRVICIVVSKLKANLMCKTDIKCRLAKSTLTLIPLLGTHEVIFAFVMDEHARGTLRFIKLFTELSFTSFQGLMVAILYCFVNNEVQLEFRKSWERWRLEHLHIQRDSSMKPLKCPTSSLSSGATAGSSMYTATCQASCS
The experiment in a line: cAMP functional activity assay, hGLP-1R HEK-293 cells. It counts as cell-based. The settings on record: HEK293; percent of response to 10 nM GLP-1(7-36)NH2; mean ± SEM.

The target in data set [2] is T2, human GIP receptor (hGIP-R) (Homo sapiens, UniProt P48546).
T2 construct: expressed in transfected cells; host or cells: HEK-293 clonal cell line
T2 sequence (P48546 22-466): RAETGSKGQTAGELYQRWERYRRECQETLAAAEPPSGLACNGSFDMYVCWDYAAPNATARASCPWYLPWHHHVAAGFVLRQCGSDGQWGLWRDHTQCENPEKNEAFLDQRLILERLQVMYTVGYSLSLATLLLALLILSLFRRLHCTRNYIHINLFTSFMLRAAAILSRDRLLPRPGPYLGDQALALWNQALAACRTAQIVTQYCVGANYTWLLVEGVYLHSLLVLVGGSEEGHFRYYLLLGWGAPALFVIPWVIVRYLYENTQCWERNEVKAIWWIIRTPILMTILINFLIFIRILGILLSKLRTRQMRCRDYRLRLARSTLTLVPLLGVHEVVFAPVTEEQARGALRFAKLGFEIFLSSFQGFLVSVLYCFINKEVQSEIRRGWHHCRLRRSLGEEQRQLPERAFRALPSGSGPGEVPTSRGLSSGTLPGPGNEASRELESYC
As to the kind of experiment: cAMP functional activity assay, hGIP-R HEK-293 cells. It counts as cell-based. The procedure:
After a sixty-minute incubation at room temperature, the resulting increase in intracellular cAMP is quantitatively determined using a cAMP Dynamic 2 HTRF Assay Kit (62AM4PEJ; CisBio; Codolet, FR). Briefly, cAMP levels within the cell are detected by adding a cAMP-d2 conjugate in cell lysis buffer (10 μl) followed by an anti-cAMP-Eu3+-Cryptate antibody, also in cell lysis buffer (10 μl). […] A relative EC50 value and percent top (Emax) are derived by non-linear regression analysis using the percent maximal response vs. the concentration of peptide added, fitted to a four-parameter logistic equation.

Data set [3] deals with T3, human glucagon receptor (human, UniProt P47871 26-477). As to the kind of experiment: cell-based or functional assay.
T3 sequence (P47871 26-477): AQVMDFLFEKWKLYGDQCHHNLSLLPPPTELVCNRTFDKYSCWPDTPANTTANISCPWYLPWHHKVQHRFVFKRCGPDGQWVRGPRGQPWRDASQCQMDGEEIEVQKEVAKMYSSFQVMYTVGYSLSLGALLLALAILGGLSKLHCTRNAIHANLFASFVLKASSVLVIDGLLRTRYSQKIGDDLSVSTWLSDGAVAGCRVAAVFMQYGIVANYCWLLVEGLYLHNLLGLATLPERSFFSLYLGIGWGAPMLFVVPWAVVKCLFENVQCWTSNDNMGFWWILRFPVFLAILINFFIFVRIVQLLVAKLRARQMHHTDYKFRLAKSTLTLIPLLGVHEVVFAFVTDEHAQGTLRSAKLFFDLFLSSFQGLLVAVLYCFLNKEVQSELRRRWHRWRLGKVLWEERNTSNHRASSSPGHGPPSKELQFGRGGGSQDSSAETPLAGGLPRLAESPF
The target of data set [4] is T4, human GLP-1 receptor (human, UniProt P43220 24-463). The experiment in a line: cell-based or functional assay.
Data set [5] concerns the target human GIP receptor (human) (UniProt P48546). The experiment in a line: cell-based or functional assay.
Data set [6] concerns the target T5, rat glucagon receptor (rat, UniProt P30082 27-485). The experiment in a line: cell-based or functional assay.
In data set [7] the target is T3, human glucagon receptor. The experiment in a line: SPA competition with 125I-labelled glucagon on hGCGR membranes. From the text: (§1) Plates are sealed, mixed on a plate shaker, and read with a MicroBeta™ scintillation counter (PerkinElmer) after 12 hr of settling time at room temperature.
Data set [8] concerns the target T5, rat glucagon receptor. The experiment in a line: SPA competition with 125I-labelled glucagon on rGCGR membranes. The procedure: as §1
The SPA receptor binding assay and calculation of the results are carried out as described in the hGCGR binding assay.

In data set [9] the target is T3, human glucagon receptor. The experiment in a line: cell-based or functional assay. The source holds these as a separate data set.
The target of data set [10] is T4, human GLP-1 receptor. The experiment in a line: cell-based or functional assay. This is another data set of the same source.

T5 sequence (P30082 27-485): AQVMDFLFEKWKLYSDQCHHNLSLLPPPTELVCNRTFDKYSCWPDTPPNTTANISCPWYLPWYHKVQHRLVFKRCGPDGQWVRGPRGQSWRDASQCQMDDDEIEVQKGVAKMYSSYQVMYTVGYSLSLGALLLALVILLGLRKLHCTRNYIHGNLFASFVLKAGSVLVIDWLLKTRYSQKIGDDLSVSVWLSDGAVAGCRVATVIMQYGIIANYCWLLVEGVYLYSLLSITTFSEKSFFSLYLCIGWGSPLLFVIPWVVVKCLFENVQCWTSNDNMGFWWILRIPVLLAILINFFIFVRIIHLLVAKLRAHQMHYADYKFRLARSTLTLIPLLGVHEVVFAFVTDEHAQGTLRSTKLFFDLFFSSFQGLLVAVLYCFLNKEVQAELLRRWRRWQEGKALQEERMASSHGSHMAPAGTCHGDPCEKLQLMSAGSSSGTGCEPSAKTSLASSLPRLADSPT

For `CC(C)C[C@H](NC(=O)[C@H](Cc1ccncc1)NC(=O)[C@H](CCCCN)NC(=O)[C@@H](NC(=O)[C@H](Cc1ccccc1)NC(=O)[C@H](C)NC(=O)[C@H](CCC(N)=O)NC(=O)[C@H](C)NC(=O)[C@H](CCCNC(=N)N)NC(=O)[C@H](CCCNC(=N)N)NC(=O)C(C)(C)NC(=O)[C@H](CC(=O)O)NC(=O)[C@H](CC(C)C)NC(=O)[C@H](Cc1ccc(O)cc1)NC(=O)[C@H](CCCCN)NC(=O)[C@H](CO)NC(=O)[C@H](Cc1ccc(O)cc1)NC(=O)[C@H](CC(=O)O)NC(=O)[C@H](CO)NC(=O)[C@@H](NC(=O)[C@H](Cc1ccccc1)NC(=O)[C@@H](NC(=O)CNC(=O)[C@H](CCC(N)=O)NC(=O)[C@H](CO)NC(=O)[C@@H](N)Cc1c[nH]cn1)[C@@H](C)O)[C@@H](C)O)C(C)C)C(=O)N[C@@H](CC(C)C)C(=O)N[C@@H](CO)C(=O)N[C@H](C(=O)O)[C@@H](C)O` [Example 2], in the data set “in vivo” (AUC0-inf), the AUC(0-inf) (in general, total exposure, with the tail of the curve extrapolated) was 1.92 ng·h/mL. The apparent clearance CL/F – broadly, clearance divided by bioavailability, as obtained after extravascular dosing – in “in vivo” (CL/F) is 87 mL/min/kg. The Emax (commonly the maximal effect, on the per cent scale that the assay sets) in data set [1] amounted to 109 ± 4%. In [2] (HEK293, percent of response to 10 nM GIP(1-42)NH2, Examples at 9.95 μM, read-out: Emax hGIPR), the Emax at 9.95 µM was less than 5%. Also, the EC50 (commonly the concentration that produces a half-maximal response) in data set [2] (in the presence of FBS and BSA, read-out: cAMP EC50 hGIPR) was more than 9950 nM.

B1: Example 1 compound (glucagon analog agonist, SEQ ID NO:3) (peptide)
peptide: HSQGTFTSDYSKYLD[Aib]RRAQQFVK[4Pal]LLST-OH
modifications: N-terminus assumed
SMILES: CC(C)C[C@H](NC(=O)[C@H](Cc1ccncc1)NC(=O)[C@H](CCCCN)NC(=O)[C@@H](NC(=O)[C@H](Cc1ccccc1)NC(=O)[C@H](CCC(N)=O)NC(=O)[C@H](CCC(N)=O)NC(=O)[C@H](C)NC(=O)[C@H](CCCNC(=N)N)NC(=O)[C@H](CCCNC(=N)N)NC(=O)C(C)(C)NC(=O)[C@H](CC(=O)O)NC(=O)[C@H](CC(C)C)NC(=O)[C@H](Cc1ccc(O)cc1)NC(=O)[C@H](CCCCN)NC(=O)[C@H](CO)NC(=O)[C@H](Cc1ccc(O)cc1)NC(=O)[C@H](CC(=O)O)NC(=O)[C@H](CO)NC(=O)[C@@H](NC(=O)[C@H](Cc1ccccc1)NC(=O)[C@@H](NC(=O)CNC(=O)[C@H](CCC(N)=O)NC(=O)[C@H](CO)NC(=O)[C@@H](N)Cc1c[nH]cn1)[C@@H](C)O)[C@@H](C)O)C(C)C)C(=O)N[C@@H](CC(C)C)C(=O)N[C@@H](CO)C(=O)N[C@H](C(=O)O)[C@@H](C)O
On to B1, for which, in the data set with human glucagon receptor [3], the “Emax (% of response to 1 nM Glucagon)” value amounted to 103%. Also, the “Emax (% of response to 10 nM GLP-1(7-36)NH2)” value with human GLP-1 receptor [4] was found to be 105%. This molecule showed an Emax (% of response to 10 nM GIP(1-42)NH2), at 9.95 µM in [5] of less than 5%. The cAMP EC50 was more than 9950 nM in data set [5], 0.135 nM with rat glucagon receptor [6], 0.0143 nM with human glucagon receptor [9] and 181 nM in the data set with human GLP-1 receptor [10]. Besides, the figures for the inhibition constant Ki with human glucagon receptor [7] and in the data set with rat glucagon receptor [8] were 3.18 nM and 17.4 nM, respectively.

B2: Example 2 compound (glucagon analog agonist, SEQ ID NO:4) (peptide)
peptide: HSQGTFTSDYSKYLD[Aib]RRAQAFVK[4Pal]LLST-OH
modifications: N-terminus assumed
SMILES: CC(C)C[C@H](NC(=O)[C@H](Cc1ccncc1)NC(=O)[C@H](CCCCN)NC(=O)[C@@H](NC(=O)[C@H](Cc1ccccc1)NC(=O)[C@H](C)NC(=O)[C@H](CCC(N)=O)NC(=O)[C@H](C)NC(=O)[C@H](CCCNC(=N)N)NC(=O)[C@H](CCCNC(=N)N)NC(=O)C(C)(C)NC(=O)[C@H](CC(=O)O)NC(=O)[C@H](CC(C)C)NC(=O)[C@H](Cc1ccc(O)cc1)NC(=O)[C@H](CCCCN)NC(=O)[C@H](CO)NC(=O)[C@H](Cc1ccc(O)cc1)NC(=O)[C@H](CC(=O)O)NC(=O)[C@H](CO)NC(=O)[C@@H](NC(=O)[C@H](Cc1ccccc1)NC(=O)[C@@H](NC(=O)CNC(=O)[C@H](CCC(N)=O)NC(=O)[C@H](CO)NC(=O)[C@@H](N)Cc1c[nH]cn1)[C@@H](C)O)[C@@H](C)O)C(C)C)C(=O)N[C@@H](CC(C)C)C(=O)N[C@@H](CO)C(=O)N[C@H](C(=O)O)[C@@H](C)O
With B2, in the data set with human GLP-1 receptor [4], the “Emax (% of response to 10 nM GLP-1(7-36)NH2)” value stood at 109%. The Emax (% of response to 10 nM GIP(1-42)NH2), at 9.95 µM in data set [5] was less than 5%. Further, the cAMP EC50 was more than 9950 nM in data set [5], 0.204 nM in the data set with rat glucagon receptor [6], 0.0265 nM in the data set with human glucagon receptor [9] and 250 nM with human GLP-1 receptor [10]. The inhibition constant Ki (commonly the equilibrium dissociation constant of an inhibitor or competing ligand from its target) with human glucagon receptor [7] was determined as 6.87 nM; with rat glucagon receptor [8], 34.2 nM.

B3: Example 3 compound (glucagon analog agonist, SEQ ID NO:5) (peptide)
peptide: HS[Dab](Ac)GTFTSDYSKYLD[Aib]RRAQAFVK[4Pal]LLST-OH
modifications: N-terminus assumed
SMILES: CC(=O)NCC[C@H](NC(=O)[C@H](CO)NC(=O)[C@@H](N)Cc1c[nH]cn1)C(=O)NCC(=O)N[C@H](C(=O)N[C@@H](Cc1ccccc1)C(=O)N[C@H](C(=O)N[C@@H](CO)C(=O)N[C@@H](CC(=O)O)C(=O)N[C@@H](Cc1ccc(O)cc1)C(=O)N[C@@H](CO)C(=O)N[C@@H](CCCCN)C(=O)N[C@@H](Cc1ccc(O)cc1)C(=O)N[C@@H](CC(C)C)C(=O)N[C@@H](CC(=O)O)C(=O)NC(C)(C)C(=O)N[C@@H](CCCNC(=N)N)C(=O)N[C@@H](CCCNC(=N)N)C(=O)N[C@@H](C)C(=O)N[C@@H](CCC(N)=O)C(=O)N[C@@H](C)C(=O)N[C@@H](Cc1ccccc1)C(=O)N[C@H](C(=O)N[C@@H](CCCCN)C(=O)N[C@@H](Cc1ccncc1)C(=O)N[C@@H](CC(C)C)C(=O)N[C@@H](CC(C)C)C(=O)N[C@@H](CO)C(=O)N[C@H](C(=O)O)[C@@H](C)O)C(C)C)[C@@H](C)O)[C@@H](C)O
Turning to B3, the “Emax (% of response to 10 nM GLP-1(7-36)NH2)” value in the data set with human GLP-1 receptor [4] came to 109%. For the same molecule, the Emax (% of response to 10 nM GIP(1-42)NH2), at 9.95 µM in data set [5] was less than 5%. In addition, the cAMP EC50 in [5] is more than 9950 nM; with rat glucagon receptor [6], 0.188 nM; with human glucagon receptor [9] it was 0.0108 nM; with human GLP-1 receptor [10], 1300 nM. The inhibition constant (Ki) with human glucagon receptor [7] is 2.08 nM; with rat glucagon receptor [8], 21.7 nM.

B4: Example 4 compound (glucagon analog agonist, SEQ ID NO:6) (peptide)
peptide: HS[Dab](Ac)GTFTSDYSKYLD[Aib]RRAQQFVK[4Pal]LLST-OH
modifications: N-terminus assumed
SMILES: CC(=O)NCC[C@H](NC(=O)[C@H](CO)NC(=O)[C@@H](N)Cc1c[nH]cn1)C(=O)NCC(=O)N[C@H](C(=O)N[C@@H](Cc1ccccc1)C(=O)N[C@H](C(=O)N[C@@H](CO)C(=O)N[C@@H](CC(=O)O)C(=O)N[C@@H](Cc1ccc(O)cc1)C(=O)N[C@@H](CO)C(=O)N[C@@H](CCCCN)C(=O)N[C@@H](Cc1ccc(O)cc1)C(=O)N[C@@H](CC(C)C)C(=O)N[C@@H](CC(=O)O)C(=O)NC(C)(C)C(=O)N[C@@H](CCCNC(=N)N)C(=O)N[C@@H](CCCNC(=N)N)C(=O)N[C@@H](C)C(=O)N[C@@H](CCC(N)=O)C(=O)N[C@@H](CCC(N)=O)C(=O)N[C@@H](Cc1ccccc1)C(=O)N[C@H](C(=O)N[C@@H](CCCCN)C(=O)N[C@@H](Cc1ccncc1)C(=O)N[C@@H](CC(C)C)C(=O)N[C@@H](CC(C)C)C(=O)N[C@@H](CO)C(=O)N[C@H](C(=O)O)[C@@H](C)O)C(C)C)[C@@H](C)O)[C@@H](C)O
As to B4, the “Emax (% of response to 1 nM Glucagon)” value with human glucagon receptor [3] turned out to be 98%. Besides, in the data set with human GLP-1 receptor [4], the “Emax (% of response to 10 nM GLP-1(7-36)NH2)” value came out at 100%. Further, the Emax (% of response to 10 nM GIP(1-42)NH2), at 9.95 µM in data set [5] was less than 5%. The cAMP EC50 in data set [5] was more than 9950 nM; in the data set with rat glucagon receptor [6] it was 0.083 nM; with human glucagon receptor [9], 0.00888 nM; with human GLP-1 receptor [10], 1270 nM. The Ki stood at 1.2 nM with human glucagon receptor [7] and 13.5 nM with rat glucagon receptor [8].
